# Source: patent US20250295734A1, “ANTICOAGULANT PROTEINS AND THEIR USE FOR TREATING DISEASES ASSOCIATED WITH THE ACTIVATION OF NEUTROPHILS” (BIOXODES, priority 2018, published 2025)
# Legend:
# [1] = Quantification of Ir-CPI in plasma samples by ELISA; type: in vivo, mice (C57BL/6JRj); conditions: iv bolus 20.5 mg/kg + infusion 3.7 mg/kg/h; after about 150 min of procedure; Mean±SEM, n=5
# Procedure: Plasma (around 250 μL) was centrifuged at 18-22° C./at 2500 g during 15 min. Plasma was centrifuged again (18-22° C. at 2500 g during 15 min) and was stored into a polypropylene tube at −80° C. Plasma samples were later sent frozen on dry ice for dosage of the circulating concentration of Ir-CPI by ELISA.
# The quantification of circulating Ir-CPI in the plasma samples was assessed by ELISA at Eurofins, ADME Bioanalyses (Vergèze, France). A sandwich immuno-assay was carried out using two anti-Ir-CPI antibodies. The capture monoclonal antibody (Ir-CPI3) was coated to microtitration plates (Nunc, ThermoFischer Scientific, USA) at 1 μg/mL overnight at 4° C. in PBS (Hyclone, USA). Wells were blocked with PBS BSA 2% (Sigma-Aldrich, USA) at room temperature (RT) for 1 h and were then washed. Samples were added into the wells and incubated for 2 h at RT. The biotinylated detection antibody (L39-biotin), previously diluted in PBS BSA 1% (Sigma-Aldrich, USA), was added to the wells and complemented with streptavidin-HRP (REF) diluted in PBS BSA 1%. TMB SureBlue (KPL, REF) and H2SO4 IN (VWR, USA) were used for spectrophotometric detection (450 nm).
# [2] = system: platelet accumulation and fibrin generation in Panc02 tumor-bearing mice; experiment: Laser injury in pancreatic cancer-bearing mice (cancer-associated thrombosis model); type: in vivo, mice (C57BL/6JRj); conditions: for fibrin generation compared to NaCl cancer mice / platelet accumulation compared to NaCl cancer mice: tumor-bearing mice
# Procedure: Murine Panc02 cells (mouse pancreatic ductal adenocarcinoma cell line) were cultured to a 80% confluence in RPMI-1640 medium (Life Technologies) supplemented with 10% FCS (PAA), 1000 U/mL penicillin (Life Technologies), 100 μg/mL streptomycin (Life Technologies) and 0.1% fungizone (Life Technologies) at 37° C. in a humidified atmosphere with 5% CO2. Once in the exponential growth phase, cells were washed three times with PBS and briefly exposed to non-enzymatic cell dissociation buffer (Life
# Technologies) to dislodge the cells. The cells were carefully washed three times, resuspended in PBS, and diluted to the desired concentration.
# Five-week-old C57BL/6 mice were injected subcutaneously in the right flank with a tumor cell suspension (10^6 cells in 100 μL of PBS). When the tumor became palpable (0.2 cm), measurements in two dimensions were performed with a caliper, and the volume of each tumor was calculated according to the formula for the volume of an ellipsoid: π/6×a(b)^2, where a is the largest diameter and b the smallest diameter of the tumor.
# Intravital video-microscopy of the cremaster muscle microcirculation was done as previously described (Falati et al., 2002) and as described hereinabove (see Example 1).
# Vessel wall injury was induced with a Micropoint Laser System (Photonics Instruments) as described hereinabove (see Example 1).
# Platelet and fibrin accumulation after injury were monitored and detected as indicated hereinabove (see Example 1).
# Tumor-bearing mice were attributed to the Ir-CPI-treated group (Ir-CPI cancer) or to the control group (NaCl cancer). Moreover, cancer-free mice treated with NaCl (NaCl cancer-free) were also used as negative control. All mice were submitted to laser injuries in arterioles of the cremaster muscle to trigger thrombosis. Ir-CPI treated mice received either a low or a high dose of the investigative product.
# Platelet accumulation and fibrin generation on the injured vessel walls were monitored using the following fluorescently labeled antibodies: DyLight649-labeled anti-GPIb antibody and Alexa Fluor 488-conjugated anti-fibrin antibody, respectively.
# [3] = Tail bleeding time assessment; type: in vivo, mice (C57BL/6JRj)
# Procedure: Tail bleeding time assessment under NaCl or Ir-CPI treatment (Low or High dose) was performed as previously described (Mezouar et al., 2015) on anesthetized wild-type (i.e. cancer-free) or cancer-bearing mice. Briefly, a 1- to 3-mm portion of the distal tail was removed from mice; the tail was immersed in isotonic saline (37° C.), and the time to complete cessation of blood flow recorded. The bleeding time was monitored for a maximum of 10 min.
# Factor Xa = Factor Xa (Homo sapiens, UniProt P00742); conditions: cited from earlier work
# Factor Xa, sequence (P00742 41-179 limits assumed): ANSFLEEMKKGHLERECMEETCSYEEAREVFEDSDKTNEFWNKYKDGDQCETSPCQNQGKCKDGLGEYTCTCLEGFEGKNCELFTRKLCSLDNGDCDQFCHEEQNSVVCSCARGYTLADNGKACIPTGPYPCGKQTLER
# Factor Xa, sequence (P00742 235-488 limits assumed): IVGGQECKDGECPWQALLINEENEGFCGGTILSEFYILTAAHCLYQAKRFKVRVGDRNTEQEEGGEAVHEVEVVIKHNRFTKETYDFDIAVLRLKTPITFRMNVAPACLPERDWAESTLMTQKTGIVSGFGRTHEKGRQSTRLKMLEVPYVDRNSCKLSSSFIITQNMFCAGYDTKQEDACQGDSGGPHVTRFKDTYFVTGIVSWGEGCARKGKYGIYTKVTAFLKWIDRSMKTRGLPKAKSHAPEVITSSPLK
# prekallikrein (PK) = prekallikrein (PK) (Homo sapiens, UniProt P03952); conditions: cited from earlier work
# prekallikrein (PK), sequence (P03952 20-638): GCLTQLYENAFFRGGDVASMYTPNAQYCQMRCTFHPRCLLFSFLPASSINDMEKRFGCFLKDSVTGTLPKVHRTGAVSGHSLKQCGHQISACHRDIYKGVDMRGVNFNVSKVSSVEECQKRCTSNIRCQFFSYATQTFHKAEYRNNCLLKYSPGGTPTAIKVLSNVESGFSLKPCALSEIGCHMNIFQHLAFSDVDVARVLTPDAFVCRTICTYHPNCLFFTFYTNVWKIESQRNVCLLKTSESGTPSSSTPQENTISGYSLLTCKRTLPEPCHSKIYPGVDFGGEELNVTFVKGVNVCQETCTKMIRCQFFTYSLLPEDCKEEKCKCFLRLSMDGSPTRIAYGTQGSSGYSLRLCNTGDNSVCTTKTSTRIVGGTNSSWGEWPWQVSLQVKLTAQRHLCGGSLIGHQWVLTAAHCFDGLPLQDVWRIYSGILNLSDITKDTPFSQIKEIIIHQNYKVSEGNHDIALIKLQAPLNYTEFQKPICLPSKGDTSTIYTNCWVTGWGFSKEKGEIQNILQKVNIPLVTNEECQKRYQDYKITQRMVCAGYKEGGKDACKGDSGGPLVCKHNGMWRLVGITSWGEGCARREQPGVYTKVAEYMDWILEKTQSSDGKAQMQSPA
# [4] = High dose: 20.5 mg/kg bolus + 3.7 mg/kg/h
# [5] = Low dose: 10.3 mg/kg bolus + 1.9 mg/kg/h
molecule,measurement,setting,value
"Ir-CPI: Ixodes ricinus salivary gland polypeptide, contact phase inhibitor, MW=7660 Da; sequence SEQ ID NO: 1 or SEQ ID NO: 2 (protein) ANHKGRGRPAKCKLPPDDGPCRARIPSYYFDRKTKTCKEFMYGGCEGNENNFENITTCQEECRAKKV",Mean plasma concentration,[1],6480 ± 1020 ng/mL
same,fibrin generation compared to NaCl cancer mice,[2]; [4],significant decrease
same,platelet accumulation compared to NaCl cancer mice,[2]; [4],significant decrease
same,integrated fluorescence intensity of platelet labeling (area under curve),"[2]; High dose, vs NaCl cancer-free mice (*p<0.05) and NaCl cancer mice (***p<0.001)",significantly lower
same,fibrin generation compared to NaCl cancer mice,[2]; [5],significant decrease
same,platelet accumulation compared to NaCl cancer mice,[2]; [5],significant decrease
same,tail bleeding time compared to NaCl-treated mice,"[3]; High dose (20.5 mg/kg + 3.7 mg/kg/h), cancer-bearing mice",No significant effect
same,tail bleeding time compared to NaCl-treated mice,"[3]; High dose (20.5 mg/kg + 3.7 mg/kg/h), cancer-free mice",No significant effect
same,tail bleeding time compared to NaCl-treated mice,"[3]; Low dose (10.3 mg/kg + 1.9 mg/kg/h), cancer-bearing mice",No significant effect
same,tail bleeding time compared to NaCl-treated mice,"[3]; Low dose (10.3 mg/kg + 1.9 mg/kg/h), cancer-free mice",No significant effect
same,activity on Factor Xa,Factor Xa,totally inactive
same,binding to prekallikrein (PK),prekallikrein (PK),unable to bind
